In assay [1] the target is T1, N-cadherin (UniProt P19022 160-906, limits assumed).
T1 construct: whole, on cells
T1 sequence (looked up): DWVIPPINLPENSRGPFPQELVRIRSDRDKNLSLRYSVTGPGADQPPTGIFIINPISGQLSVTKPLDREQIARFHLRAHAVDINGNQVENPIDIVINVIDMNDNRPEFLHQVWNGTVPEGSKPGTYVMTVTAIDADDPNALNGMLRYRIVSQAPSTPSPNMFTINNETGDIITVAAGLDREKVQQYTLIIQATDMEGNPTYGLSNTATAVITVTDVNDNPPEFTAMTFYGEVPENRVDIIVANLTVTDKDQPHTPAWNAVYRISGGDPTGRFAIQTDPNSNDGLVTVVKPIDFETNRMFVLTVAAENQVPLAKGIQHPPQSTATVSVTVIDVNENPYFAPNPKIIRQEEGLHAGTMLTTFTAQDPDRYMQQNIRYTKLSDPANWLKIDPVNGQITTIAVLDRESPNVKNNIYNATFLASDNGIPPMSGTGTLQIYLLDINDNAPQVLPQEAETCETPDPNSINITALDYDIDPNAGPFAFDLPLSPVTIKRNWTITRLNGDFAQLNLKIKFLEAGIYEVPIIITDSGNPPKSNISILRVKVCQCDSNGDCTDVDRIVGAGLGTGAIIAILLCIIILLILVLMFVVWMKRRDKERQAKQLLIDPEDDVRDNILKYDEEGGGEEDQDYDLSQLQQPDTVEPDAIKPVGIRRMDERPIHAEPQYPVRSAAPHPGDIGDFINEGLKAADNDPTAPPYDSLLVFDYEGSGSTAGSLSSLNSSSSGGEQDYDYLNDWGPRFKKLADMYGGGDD
Briefly: immunofluorescence co-localization on cells.

Assay [2] concerns the target T2, LDLR (UniProt P01130 22-860, limits assumed).
T2 construct: whole, on cells
Briefly: immunofluorescence co-localization on cells.

For assay [3], the target named is T3, EGFR extracellular domain (with an amino acid sequence of 25-645) (human, UniProt P00533 25-645).
T3 construct: range 25-645; Coupled on a CM5 chip; also called epidermal growth factor receptor extracellular domain; ligand (on the chip)
Briefly: SPR, Biacore T200; EGFR extracellular domain on CM5 chip, rLZ-8 protein as analyte.

The target in assay [4] is T3, EGFR extracellular domain (with an …). The assay is described as follows: SPR, Biacore T200; EGFR extracellular domain on CM5 chip.
Assay [5] shares this target. Briefly: EGFR affinity test (SPR).

Numbering of substitutions follows the chain as printed. In names and notes the source's numbering stands.

T2 sequence (P01130 22-860 limits assumed): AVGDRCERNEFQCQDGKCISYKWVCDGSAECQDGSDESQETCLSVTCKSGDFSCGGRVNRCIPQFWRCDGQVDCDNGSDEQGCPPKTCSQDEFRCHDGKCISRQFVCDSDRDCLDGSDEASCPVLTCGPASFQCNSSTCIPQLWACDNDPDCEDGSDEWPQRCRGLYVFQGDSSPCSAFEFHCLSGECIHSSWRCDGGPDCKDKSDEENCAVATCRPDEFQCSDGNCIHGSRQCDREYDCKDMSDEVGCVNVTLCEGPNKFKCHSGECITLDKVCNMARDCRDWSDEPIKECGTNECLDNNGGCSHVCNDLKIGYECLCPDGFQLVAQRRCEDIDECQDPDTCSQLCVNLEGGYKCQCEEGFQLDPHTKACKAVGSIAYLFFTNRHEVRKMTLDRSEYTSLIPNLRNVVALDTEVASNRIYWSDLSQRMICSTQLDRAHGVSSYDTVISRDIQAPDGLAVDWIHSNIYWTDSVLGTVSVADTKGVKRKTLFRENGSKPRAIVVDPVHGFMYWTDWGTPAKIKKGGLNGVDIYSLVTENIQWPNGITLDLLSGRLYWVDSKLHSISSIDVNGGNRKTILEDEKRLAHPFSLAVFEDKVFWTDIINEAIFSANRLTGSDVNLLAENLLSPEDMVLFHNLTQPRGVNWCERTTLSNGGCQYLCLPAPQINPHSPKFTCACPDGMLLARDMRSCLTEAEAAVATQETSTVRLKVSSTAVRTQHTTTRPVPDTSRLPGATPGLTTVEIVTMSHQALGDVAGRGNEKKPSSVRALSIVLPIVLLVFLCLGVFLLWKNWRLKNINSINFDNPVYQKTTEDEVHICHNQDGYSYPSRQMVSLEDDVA

B1: recombinant immunoregulatory protein of Ganoderma lucidum (rLZ-8) (other)
chain: MSDTALIFRLAWDVKKLSFDYTPNWGRGNPNNFIDTVTFPKVLTDKAYTYRVAVSGRNLGVKPSYAVESDGSQKVNFLEYNSGYGIADTNTIQVFVVDPDTNNDFIIAQWN
notes: also called Lingzhi-8
Turning to B1, the binding result in assay [1] and in assay [2] was “no binding” throughout.

B2: rLZ-8 (K16A/S18A/K41A/D45A) (other)
chain: B1 chain with K16A, S18A, K41A, D45A
notes: Alanine mutant of rLZ-8, made by the same fermentation and purification as rLZ-8
As for B2, in assay [3], binding was characterised by a dissociation constant (Kd) of 30600 nM; the koff (as a rule, the rate constant with which the complex falls apart) was determined as 0.00423 s⁻¹; the kon – broadly, a measure of how fast the partners come together – was 139 M⁻¹ s⁻¹.

B3: rLZ-8 (R9A) (other)
chain: B1 chain with R9A
notes: Alanine mutant of rLZ-8
For the molecule B3, in assay [3], the equilibrium dissociation constant (Kd) (as a rule, the free concentration of one partner at which half of the binding sites on the other are occupied at equilibrium, for simple one-to-one binding) was 8.63 nM; the koff stood at 0.000528 s⁻¹; the kon was found to be 61200 M⁻¹ s⁻¹.

B4: rLZ-8 (L17K) (other)
chain: B1 chain with L17K
notes: Surface potential mutant of rLZ-8
B4: in assay [3], the affinity, expressed as Kd, was 7.49 nM; the koff worked out at 7.56e-05 s⁻¹; the kon came to 10100 M⁻¹ s⁻¹.

B5: rLZ-8 (D20H) (other)
chain: B1 chain with D20H
notes: as for B4
In assay [3], B5 had a Kd of 7.36 nM, a koff of 0.000432 s⁻¹ and an on-rate (kon) of 58700 M⁻¹ s⁻¹.

B6: rLZ-8 (K41D/K46E/K74E) (other)
chain: B1 chain with K41D, K46E, K74E
notes: Mutant of rLZ-8
In assay [3], B6 displayed a Kd of 12.2 nM, a koff of 0.000431 s⁻¹ and a kon of 35300 M⁻¹ s⁻¹.

B7: rLZ-8 (K16A/K41A) (other)
chain: B1 chain with K16A, K41A
notes: Alanine mutant of rLZ-8
For the molecule B7, in assay [3], the Kd turned out to be 1240 nM, the off-rate constant (koff) was 0.000273 s⁻¹ and the kon was found to be 220 M⁻¹ s⁻¹.

B8: rLZ-8 (K46E/K74E) (other)
chain: B1 chain with K46E, K74E
notes: Mutant of rLZ-8
In assay [3], B8 showed a Kd of 9.35 nM, a koff of 0.000614 s⁻¹ and a kon of 65700 M⁻¹ s⁻¹.

B9: rLZ-8 (D45A) (other)
chain: B1 chain with D45A
notes: Alanine mutant of rLZ-8
Consider B9, for which, in assay [3], the Kd amounted to 620 nM, the off-rate constant (koff) is 0.000743 s⁻¹ and the kon amounted to 1200 M⁻¹ s⁻¹.

B10: rLZ-8 (L17K/D70K) (other)
chain: B1 chain with L17K, D70K
notes: as for B4
As for B10, in assay [3], the Kd was determined as 1.53 nM, the koff is 0.000329 s⁻¹ and the kon was found to be 215000 M⁻¹ s⁻¹. For the same molecule, the “fold increase of affinity against rLZ-8” value in assay [4] was determined as 6 times.

B11: rLZ-8 (S18A) (other)
chain: B1 chain with S18A
notes: Alanine mutant of rLZ-8
In the case of B11, in assay [3], binding was characterised by a dissociation constant (Kd) of 489 nM, the koff stood at 0.00182 s⁻¹ and the kon turned out to be 3720 M⁻¹ s⁻¹.

B12: rLZ-8 (D70K) (other)
chain: B1 chain with D70K
notes: as for B4
For the molecule B12, in assay [3], binding was put at a Kd of 2.25 nM, the koff is 0.000457 s⁻¹ and the kon amounted to 203000 M⁻¹ s⁻¹. The “fold increase of affinity equilibrium constant against rLZ-8” value in assay [5] is 4 times. Besides, the “fold increase of affinity against rLZ-8” value in assay [4] turned out to be 2.3 times.

Source of the values: patent US12077566 (dated 2024).
